1 molecule from US20230192841A1 (NANJING LEGEND BIOTECH, published 2023) can be followed below.

In the assay the target is T1, human Claudin18.2 (human, UniProt P56856-2 1-261).
T1 construct: whole, on cells; expressed on Dubca, HEK293T, PANC1 cells by lentiviral transduction; endogenous on NUGC4 and KATOIII cells; also called huCLDN18.2; CLDN18.2
Put plainly: phage ELISA and cell binding of phage supernatant, HEK293T.huCLDN18.2.Luc cells. On the procedure:
Phage ELISA was performed to identify clones specific to the target antigens. Individual output phage clones were grown in 96-deep-well plates and rescued by M13KO7 helper phage overnight. To identify clones that bound to antigen proteins, 96-well ELISA microtiter plates were coated with recombinant human HEK293T.huCLDN18.1.Luc and HEK293T.huCLDN18.2.Luc cells respectively in coating buffer overnight at 4° C., and the plates were then blocked with blocking buffer. After blocking, approximately 50 µL per well of phage supernatant from overnight cell culture was added to the plates for 1.5-hour incubation at 4° C. The plates were washed four times, and the HRP-conjugated anti-M13 monoclonal antibody was added to the plates for 45-minute incubation at 4° C. The plates were again washed five times and substrate solution was added to the wells for color developing. Absorbance at 450 nm was measured for each well.
To further identify clones that bind HEK293T.huCLDN18.2.Luc cells, the HEK293T.CLDN18.2.Luc cells were blocked with blocking buffer at room temperature for 1 hour. After blocking, approximately 20 µL per well of phage supernatant from overnight cell culture was added to the cell solutions for 1-hour incubation at room temperature. […] The absorption was measured at 450 nm.
A general note: In an ELISA, binding on a coated surface is turned into a signal by an enzyme label.

B1: VHH182512 (VHH)
VHH: EVQLVESGGGSVQAGGSLTLSCEASRSTANMAWFRQGPGKEREGVAAAHSDGSTKYADSVKGRFTISKDNGKNTLYLRMNGLKPEEGVMYYCAARGSPWWNSVVALESYAYSYWGQGTQVTVSS
Consider B1, for which the binding result is “binds”.
